Reference: PMC7494017
Blank lines part the entries; values can stand above or below the substance they belong to.

Tests used:
[1] = biological target: SAV1 Y273E-WW12ex (mouse); test: ITC
[2] = biological target: SAV1 WW12 (aa E198-A268) (mouse) (UniProt Q8VEB2); test: ITC
[3] = biological target: SAV1 S245D-WW12ex (mouse); test: SEC-MALS

Kd [1]: 3.8 µM
Substance: Dendrin PY23 (aa D222-G241) (from UniProt Q80TS7 222-241) (domain or fragment)

fold weakening of binding against WT dendrin PY23 [2]: 18 fold
Substance: Dendrin PY23 with the PPPY motif changed into PPDY (from UniProt Q80TS7 222-241) (domain or fragment)

stoichiometry N [3]: 2
Substance: SAV1 S245D-WW12ex (domain or fragment)
